Source: patent US20140303356A1

What was measured:
[1] = target: CH2-CH3 construct G1-F405L (human); test: native MS, monomer-dimer equilibrium of CH2-CH3 fragment, homodimer
[2] = target: IgG1Δhinge fragment of IgG1-7D8-K409R; test: native MS, CH2-CH3 fragment mixed with IgG1Δhinge fragment for 24 hours, heterodimer

Kd [1]: 850 nM
Kd [2]: 12 nM
Substance: CH2-CH3 construct G1-F405L
